{"source": "paper PMC2119935", "molecular_target": "F-actin (polymerised rabbit skeletal muscle actin) (rabbit) (UniProt P68135)", "experiment": "co-sedimentation"}
{"substance": "GST-ΔFok fusion protein (c-Abl type IV amino acids 1015-1142 fused to GST) (domain or fragment)", "values": [{"measurement": "Kd", "value": 18, "unit": "µM"}]}
